This is an account of results in patent CN116981688A (HELMHOLTZ ZENTRUM MUENCHEN DEUTSCHES FORSCHUNGSZENTRUM FUR …, dated 2023).

In test [1] the target is T1, 人PRDX4 (存在于癌细胞的细胞表面上) (human) (UniProt Q13162).
T1 sequence: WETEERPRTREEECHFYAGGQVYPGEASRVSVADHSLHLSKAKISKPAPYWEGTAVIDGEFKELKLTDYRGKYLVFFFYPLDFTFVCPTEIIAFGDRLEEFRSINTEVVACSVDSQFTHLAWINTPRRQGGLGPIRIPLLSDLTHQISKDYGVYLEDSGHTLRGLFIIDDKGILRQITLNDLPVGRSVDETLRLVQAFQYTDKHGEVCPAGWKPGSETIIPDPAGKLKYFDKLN
Description: flow cytometry on ES-2 cells, isotype control. (Flow cytometry measures light scatter and fluorescence of single cells or particles in a stream.)

In test [2] the target is T1, 人PRDX4 (存在于癌细胞的细胞表面上) (human). Kind of test: flow cytometry on ES-2w cells transfected with control siRNA.
For a further test, the target named is T2, PRDX4 (内源性, 细胞裂解物中) (human, UniProt Q13162 38-271).
T2 construct: Endogenous PRDX4 in RIPA lysates of human cell lines (ES-2 and others), precipitated with 11F2 beads; also called 内源性PRDX4
T2 sequence: T1 sequence
Description: immunoprecipitation with 11F2 beads from ES-2 lysate, western blot. (In western blotting, separated proteins are transferred to a membrane and probed.)

Test [3] concerns the target T1, 人PRDX4 (存在于癌细胞的细胞表面上) (human). Description: flow cytometry on ES-2 cells transfected with PRDX4-specific siRNA (population 4BC_KO).
Test [4] shares this target. Description: flow cytometry on ES-2 cells with PRDX4-specific siRNA (4BC_KO) against control siRNA cells.

同种型抗体 (antibody): the 平均值 (mean fluorescence) in test [1] is 159.

B1: 抗体11F2 (antibody, V domains shown)
VH: QVQLQQSGAELVKPGTSVKLSCKASGYTFSTHHMHWIKETTGQGLEWIGIINPGNGGTKYNVKFKGKATLTVDSSSSTAFMQLGSLTPEDSAVYYCARGNPASFDYWGQGVMVTVSS
VL: DIQMTQSPSFLSASVGDRVTINCKASQNIYKYLNWYQQKLGEAPKRLIYNTNNLETDIPSRFSGSGSGTDYTFTISSLQPEDFATYFCLQHSNFPFTFGSGTKLEIKR
notes: Monoclonal antibody detected with goat anti-rat IgG secondary antibody, so rat constant regions; also called PRDX4特异性抗体11F2; PRDX4抗体11F2
On to B1, for which the 平均值 (mean fluorescence) in test [2] was 1910; in test [3] it was 874. Besides, the binding result in the test with PRDX4 (内源性, 细胞裂解物中) is recorded as “binds”. In test [4], this molecule yielded a percent of 11F2 binding against control siRNA cells of 50%.
